# B1: Plasma membrane calcium-transporting ATPase 2 (Homo sapiens), Q01814 (parent)
# chain: MGDMTNSDFYSKNQRNESSHGGEFGCTMEELRSLMELRGTEAVVKIKETYGDTEAICRRLKTSPVEGLPGTAPDLEKRKQIFGQNFIPPKKPKTFLQLVWEALQDVTLIILEIAAIISLGLSFYHPPGEGNEGCATAQGGAEDEGEAEAGWIEGAAILLSVICVVLVTAFNDWSKEKQFRGLQSRIEQEQKFTVVRAGQVVQIPVAEIVVGDIAQVKYGDLLPADGLFIQGNDLKIDESSLTGESDQVRKSVDKDPMLLSGTHVMEGSGRMLVTAVGVNSQTGIIFTLLGAGGEEEEKKDKKGVKKGDGLQLPAADGAAASNAADSANASLVNGKMQDGNVDASQSKAKQQDGAAAMEMQPLKSAEGGDADDRKKASMHKKEKSVLQGKLTKLAVQIGKAGLVMSAITVIILVLYFTVDTFVVNKKPWLPECTPVYVQYFVKFFIIGVTVLVVAVPEGLPLAVTISLAYSVKKMMKDNNLVRHLDACETMGNATAICSDKTGTLTTNRMTVVQAYVGDVHYKEIPDPSSINTKTMELLINAIAINSAYTTKILPPEKEGALPRQVGNKTECGLLGFVLDLKQDYEPVRSQMPEEKLYKVYTFNSVRKSMSTVIKLPDESFRMYSKGASEIVLKKCCKILNGAGEPRVFRPRDRDEMVKKVIEPMACDGLRTICVAYRDFPSSPEPDWDNENDILNELTCICVVGIEDPVRPEVPEAIRKCQRAGITVRMVTGDNINTARAIAIKCGIIHPGEDFLCLEGKEFNRRIRNEKGEIEQERIDKIWPKLRVLARSSPTDKHTLVKGIIDSTHTEQRQVVAVTGDGTNDGPALKKADVGFAMGIAGTDVAKEASDIILTDDNFSSIVKAVMWGRNVYDSISKFLQFQLTVNVVAVIVAFTGACITQDSPLKAVQMLWVNLIMDTFASLALATEPPTETLLLRKPYGRNKPLISRTMMKNILGHAVYQLALIFTLLFVGEKMFQIDSGRNAPLHSPPSEHYTIIFNTFVMMQLFNEINARKIHGERNVFDGIFRNPIFCTIVLGTFAIQIVIVQFGGKPFSCSPLQLDQWMWCIFIGLGELVWGQVIATIPTSRLKFLKEAGRLTQKEEIPEEELNEDVEEIDHAERELRRGQILWFRGLNRIQTQIRVVKAFRSSLYEGLEKPESRTSIHNFMAHPEFRIEDSQPHIPLIDDTDLEEDAALKQNSSPPSSLNKNNSAIDSGINLTTDTSKSATSSSPGSPIHSLETSL
# B2: Disintegrin and metalloproteinase domain-containing protein 22 (Homo sapiens), Q9P0K1 (parent)
# chain: MQAAVAVSVPFLLLCVLGTCPPARCGQAGDASLMELEKRKENRFVERQSIVPLRLIYRSGGEDESRHDALDTRVRGDLGGPQLTHVDQASFQVDAFGTSFILDVVLNHDLLSSEYIERHIEHGGKTVEVKGGEHCYYQGHIRGNPDSFVALSTCHGLHGMFYDGNHTYLIEPEENDTTQEDFHFHSVYKSRLFEFSLDDLPSEFQQVNITPSKFILKPRPKRSKRQLRRYPRNVEEETKYIELMIVNDHLMFKKHRLSVVHTNTYAKSVVNMADLIYKDQLKTRIVLVAMETWATDNKFAISENPLITLREFMKYRRDFIKEKSDAVHLFSGSQFESSRSGAAYIGGICSLLKGGGVNEFGKTDLMAVTLAQSLAHNIGIISDKRKLASGECKCEDTWSGCIMGDTGYYLPKKFTQCNIEEYHDFLNSGGGACLFNKPSKLLDPPECGNGFIETGEECDCGTPAECVLEGAECCKKCTLTQDSQCSDGLCCKKCKFQPMGTVCREAVNDCDIRETCSGNSSQCAPNIHKMDGYSCDGVQGICFGGRCKTRDRQCKYIWGQKVTASDKYCYEKLNIEGTEKGNCGKDKDTWIQCNKRDVLCGYLLCTNIGNIPRLGELDGEITSTLVVQQGRTLNCSGGHVKLEEDVDLGYVEDGTPCGPQMMCLEHRCLPVASFNFSTCLSSKEGTICSGNGVCSNELKCVCNRHWIGSDCNTYFPHNDDAKTGITLSGNGVAGTNIIIGIIAGTILVLALILGITAWGYKNYREQRQLPQGDYVKKPGDGDSFYSDIPPGVSTNSASSSKKRSNGLSHSWSERIPDTKHISDICENGRPRSNSWQGNLGGNKKKIRGKRFRPRSNSTETLSPAKSPSSSTGSIASSRKYPYPMPPLPDEDKKVNRQSARLWETSI
# B3: Ribosomal protein S6 kinase alpha-2 (Homo sapiens), Q15349 (parent)
# chain: MDLSMKKFAVRRFFSVYLRRKSRSKSSSLSRLEEEGVVKEIDISHHVKEGFEKADPSQFELLKVLGQGSYGKVFLVRKVKGSDAGQLYAMKVLKKATLKVRDRVRSKMERDILAEVNHPFIVKLHYAFQTEGKLYLILDFLRGGDLFTRLSKEVMFTEEDVKFYLAELALALDHLHSLGIIYRDLKPENILLDEEGHIKITDFGLSKEAIDHDKRAYSFCGTIEYMAPEVVNRRGHTQSADWWSFGVLMFEMLTGSLPFQGKDRKETMALILKAKLGMPQFLSGEAQSLLRALFKRNPCNRLGAGIDGVEEIKRHPFFVTIDWNTLYRKEIKPPFKPAVGRPEDTFHFDPEFTARTPTDSPGVPPSANAHHLFRGFSFVASSLIQEPSQQDLHKVPVHPIVQQLHGNNIHFTDGYEIKEDIGVGSYSVCKRCVHKATDTEYAVKIIDKSKRDPSEEIEILLRYGQHPNIITLKDVYDDGKFVYLVMELMRGGELLDRILRQRYFSEREASDVLCTITKTMDYLHSQGVVHRDLKPSNILYRDESGSPESIRVCDFGFAKQLRAGNGLLMTPCYTANFVAPEVLKRQGYDAACDIWSLGILLYTMLAGFTPFANGPDDTPEEILARIGSGKYALSGGNWDSISDAAKDVVSKMLHVDPHQRLTAMQVLKHPWVVNREYLSPNQLSRQDVHLVKGAMAATYFALNRTPQAPRLEPVLSSNLAQRRGMKRLTSTRL
# B4: Mitogen-activated protein kinase 12 (Homo sapiens), P53778 (parent)
# chain: MSSPPPARSGFYRQEVTKTAWEVRAVYRDLQPVGSGAYGAVCSAVDGRTGAKVAIKKLYRPFQSELFAKRAYRELRLLKHMRHENVIGLLDVFTPDETLDDFTDFYLVMPFMGTDLGKLMKHEKLGEDRIQFLVYQMLKGLRYIHAAGIIHRDLKPGNLAVNEDCELKILDFGLARQADSEMTGYVVTRWYRAPEVILNWMRYTQTVDIWSVGCIMAEMITGKTLFKGSDHLDQLKEIMKVTGTPPAEFVQRLQSDEAKNYMKGLPELEKKDFASILTNASPLAVNLLEKMLVLDAEQRVTAGEALAHPYFESLHDTEDEPQVQKYDDSFDDVDRTLDEWKRVTYKEVLSFKPPRQLGARVSKETPL
# Variants of: B1
# Details: with scrib_human SCRIB
row,effect of a mutation on the interaction,Variant
1,increasing interaction strength,S1242E

# Variants of: B1
# Details: with scrib_human SCRIB
# Remark: another data set of the same source
# Target sequence in this assay (Q14160 whole entry): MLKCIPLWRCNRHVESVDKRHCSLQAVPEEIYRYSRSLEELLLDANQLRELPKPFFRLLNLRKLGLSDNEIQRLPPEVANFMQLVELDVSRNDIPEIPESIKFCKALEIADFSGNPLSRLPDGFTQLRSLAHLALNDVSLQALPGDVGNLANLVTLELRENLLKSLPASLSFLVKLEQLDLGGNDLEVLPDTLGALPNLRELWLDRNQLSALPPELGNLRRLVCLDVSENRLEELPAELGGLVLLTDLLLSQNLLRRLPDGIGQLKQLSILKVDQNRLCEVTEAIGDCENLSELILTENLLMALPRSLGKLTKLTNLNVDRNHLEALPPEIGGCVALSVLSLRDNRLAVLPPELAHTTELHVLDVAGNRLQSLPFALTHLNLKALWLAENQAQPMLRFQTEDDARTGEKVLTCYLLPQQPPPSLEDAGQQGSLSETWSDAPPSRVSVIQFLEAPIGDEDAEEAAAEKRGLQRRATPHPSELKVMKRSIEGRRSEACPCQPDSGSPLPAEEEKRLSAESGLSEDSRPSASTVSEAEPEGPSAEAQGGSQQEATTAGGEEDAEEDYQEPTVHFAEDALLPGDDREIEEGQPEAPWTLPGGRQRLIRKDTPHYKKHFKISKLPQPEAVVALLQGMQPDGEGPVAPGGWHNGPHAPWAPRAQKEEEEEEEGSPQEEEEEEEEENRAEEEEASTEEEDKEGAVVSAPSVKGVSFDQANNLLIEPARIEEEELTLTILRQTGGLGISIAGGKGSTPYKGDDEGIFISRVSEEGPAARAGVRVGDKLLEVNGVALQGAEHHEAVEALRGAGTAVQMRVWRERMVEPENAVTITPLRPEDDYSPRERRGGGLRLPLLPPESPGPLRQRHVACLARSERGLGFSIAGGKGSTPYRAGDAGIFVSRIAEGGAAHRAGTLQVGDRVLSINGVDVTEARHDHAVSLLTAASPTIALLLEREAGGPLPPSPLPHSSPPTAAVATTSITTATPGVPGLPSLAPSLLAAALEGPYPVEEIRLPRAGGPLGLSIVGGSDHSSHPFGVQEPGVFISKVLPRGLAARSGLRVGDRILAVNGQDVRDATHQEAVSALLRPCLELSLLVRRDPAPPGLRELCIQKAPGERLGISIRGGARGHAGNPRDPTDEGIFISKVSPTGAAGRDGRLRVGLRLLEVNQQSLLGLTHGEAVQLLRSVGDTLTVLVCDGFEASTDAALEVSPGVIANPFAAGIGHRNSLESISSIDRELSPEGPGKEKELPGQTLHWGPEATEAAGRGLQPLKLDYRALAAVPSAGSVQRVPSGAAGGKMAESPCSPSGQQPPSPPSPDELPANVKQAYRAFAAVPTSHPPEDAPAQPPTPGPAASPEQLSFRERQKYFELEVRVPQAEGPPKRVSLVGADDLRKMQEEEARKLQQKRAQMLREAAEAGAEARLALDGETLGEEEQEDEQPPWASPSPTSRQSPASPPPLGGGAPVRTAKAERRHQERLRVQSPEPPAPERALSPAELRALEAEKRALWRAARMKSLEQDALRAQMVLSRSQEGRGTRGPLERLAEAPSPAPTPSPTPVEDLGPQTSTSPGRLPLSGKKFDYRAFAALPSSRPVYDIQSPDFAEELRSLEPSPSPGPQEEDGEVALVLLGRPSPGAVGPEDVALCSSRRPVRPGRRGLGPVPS
row,effect of a mutation on the interaction,Variant
1,with no effect,S1242E

# Variants of: B2
# Details: with scrib_human SCRIB
# Target sequence in this assay (Q14160 whole entry): as above
row,effect of a mutation on the interaction,Variant
1,decreasing interaction strength,S898E

# Variants of: B3
# Details: with scrib_human SCRIB
# Target sequence in this assay (Q14160 whole entry): as above
row,effect of a mutation on the interaction,Variant
1,with no effect,S730A

# Variants of: B3
# Details: with dlg1_human DLG1, Q12959
# Target sequence in this assay (Q12959 whole entry, looked up): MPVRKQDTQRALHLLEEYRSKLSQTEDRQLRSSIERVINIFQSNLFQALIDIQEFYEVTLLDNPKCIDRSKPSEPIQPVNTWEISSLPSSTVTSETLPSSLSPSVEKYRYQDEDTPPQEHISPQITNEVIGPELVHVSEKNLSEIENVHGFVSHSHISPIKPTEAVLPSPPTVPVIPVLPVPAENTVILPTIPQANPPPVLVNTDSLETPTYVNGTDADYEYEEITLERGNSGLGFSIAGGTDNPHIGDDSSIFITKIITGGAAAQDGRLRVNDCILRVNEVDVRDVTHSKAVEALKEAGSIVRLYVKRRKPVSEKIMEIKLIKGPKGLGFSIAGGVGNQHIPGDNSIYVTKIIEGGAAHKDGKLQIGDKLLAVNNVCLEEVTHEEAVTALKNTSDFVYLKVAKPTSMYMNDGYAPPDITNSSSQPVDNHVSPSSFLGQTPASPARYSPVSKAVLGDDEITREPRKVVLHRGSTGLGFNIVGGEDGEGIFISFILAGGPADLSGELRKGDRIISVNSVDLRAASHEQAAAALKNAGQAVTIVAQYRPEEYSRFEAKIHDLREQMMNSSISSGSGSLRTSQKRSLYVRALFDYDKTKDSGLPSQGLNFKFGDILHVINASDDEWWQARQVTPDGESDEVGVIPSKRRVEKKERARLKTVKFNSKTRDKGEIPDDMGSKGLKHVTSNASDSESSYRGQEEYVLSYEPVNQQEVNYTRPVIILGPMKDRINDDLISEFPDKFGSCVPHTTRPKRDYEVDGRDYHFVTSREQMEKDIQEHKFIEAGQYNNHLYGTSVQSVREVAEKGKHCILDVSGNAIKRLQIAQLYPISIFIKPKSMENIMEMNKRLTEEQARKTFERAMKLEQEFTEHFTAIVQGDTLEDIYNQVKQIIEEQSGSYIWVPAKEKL
row,effect of a mutation on the interaction,Variant
1,increasing interaction strength,S730E

# Variants of: B3
# Details: with scrib_human SCRIB
# Remark: another data set of the same source
# Target sequence in this assay (Q14160 whole entry): as the sequence (Q14160 whole entry) above
row,effect of a mutation on the interaction,Variant
1,increasing interaction strength,S730E

# Variants of: B3
# Details: with shan1_human SHANK1, Q9Y566
# shan1_human SHANK1, Q9Y566, sequence (Q9Y566 whole entry): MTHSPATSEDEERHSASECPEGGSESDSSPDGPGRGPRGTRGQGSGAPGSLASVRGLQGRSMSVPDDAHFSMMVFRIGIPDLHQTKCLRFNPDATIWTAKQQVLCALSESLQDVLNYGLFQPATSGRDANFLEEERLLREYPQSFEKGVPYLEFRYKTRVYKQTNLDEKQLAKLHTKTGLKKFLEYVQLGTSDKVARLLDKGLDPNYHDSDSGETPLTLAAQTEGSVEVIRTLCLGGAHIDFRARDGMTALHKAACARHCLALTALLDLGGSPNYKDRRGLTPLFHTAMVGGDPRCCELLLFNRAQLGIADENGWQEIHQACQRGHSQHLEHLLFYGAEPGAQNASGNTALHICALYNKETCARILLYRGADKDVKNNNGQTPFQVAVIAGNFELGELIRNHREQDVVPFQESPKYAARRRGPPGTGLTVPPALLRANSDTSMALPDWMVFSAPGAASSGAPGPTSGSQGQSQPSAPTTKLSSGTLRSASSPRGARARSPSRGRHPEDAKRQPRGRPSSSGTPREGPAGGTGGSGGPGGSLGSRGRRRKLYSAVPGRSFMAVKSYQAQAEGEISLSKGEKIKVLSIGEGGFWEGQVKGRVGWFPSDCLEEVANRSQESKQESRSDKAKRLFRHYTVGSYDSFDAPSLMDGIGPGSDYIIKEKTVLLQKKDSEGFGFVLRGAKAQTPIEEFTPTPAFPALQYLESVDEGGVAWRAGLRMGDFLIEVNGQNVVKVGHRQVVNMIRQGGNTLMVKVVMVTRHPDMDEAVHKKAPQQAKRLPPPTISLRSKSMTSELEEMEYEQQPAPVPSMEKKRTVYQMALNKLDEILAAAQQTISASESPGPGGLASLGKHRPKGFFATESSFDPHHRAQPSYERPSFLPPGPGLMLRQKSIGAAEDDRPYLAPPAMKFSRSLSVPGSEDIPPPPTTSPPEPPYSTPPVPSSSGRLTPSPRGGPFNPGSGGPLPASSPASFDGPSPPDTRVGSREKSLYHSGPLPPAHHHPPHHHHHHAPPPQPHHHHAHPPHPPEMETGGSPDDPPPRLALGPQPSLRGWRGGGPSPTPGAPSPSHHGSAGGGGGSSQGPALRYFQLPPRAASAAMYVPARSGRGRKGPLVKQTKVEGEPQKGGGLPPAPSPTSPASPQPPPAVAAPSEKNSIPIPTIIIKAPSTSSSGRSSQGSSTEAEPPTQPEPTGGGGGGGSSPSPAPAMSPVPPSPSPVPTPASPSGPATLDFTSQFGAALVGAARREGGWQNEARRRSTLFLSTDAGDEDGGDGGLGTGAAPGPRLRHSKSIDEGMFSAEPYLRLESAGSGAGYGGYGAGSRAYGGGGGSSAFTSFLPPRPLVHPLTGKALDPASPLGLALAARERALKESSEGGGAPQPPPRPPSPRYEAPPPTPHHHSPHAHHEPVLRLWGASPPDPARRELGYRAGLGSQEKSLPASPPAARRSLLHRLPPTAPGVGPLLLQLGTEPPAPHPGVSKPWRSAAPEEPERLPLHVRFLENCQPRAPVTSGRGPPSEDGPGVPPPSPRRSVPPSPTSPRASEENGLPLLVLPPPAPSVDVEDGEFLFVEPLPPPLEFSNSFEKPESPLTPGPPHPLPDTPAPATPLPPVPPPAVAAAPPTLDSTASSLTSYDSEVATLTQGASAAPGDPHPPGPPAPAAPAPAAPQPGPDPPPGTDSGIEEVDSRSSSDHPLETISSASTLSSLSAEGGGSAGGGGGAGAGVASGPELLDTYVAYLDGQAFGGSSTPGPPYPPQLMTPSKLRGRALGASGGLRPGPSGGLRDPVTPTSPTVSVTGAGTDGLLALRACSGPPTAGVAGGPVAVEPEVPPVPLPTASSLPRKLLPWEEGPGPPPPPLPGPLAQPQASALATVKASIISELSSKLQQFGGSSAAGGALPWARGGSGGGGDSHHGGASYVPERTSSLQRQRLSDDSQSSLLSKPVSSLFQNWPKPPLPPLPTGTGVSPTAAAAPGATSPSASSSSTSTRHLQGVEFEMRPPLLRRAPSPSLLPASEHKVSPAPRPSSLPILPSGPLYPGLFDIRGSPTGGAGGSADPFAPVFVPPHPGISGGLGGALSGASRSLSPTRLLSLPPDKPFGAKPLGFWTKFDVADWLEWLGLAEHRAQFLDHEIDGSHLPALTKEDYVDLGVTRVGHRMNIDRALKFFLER
row,effect of a mutation on the interaction,Variant
1,decreasing interaction strength,S730E

# Variants of: B3
# Details: with scrib_human SCRIB
# Remark: another data set of the same source
# Target sequence in this assay (Q14160 whole entry): as the sequence (Q14160 whole entry) above
row,effect of a mutation on the interaction,Variant
1,causing an interaction,S730E

# Variants of: B4
# Details: with scrib_human SCRIB
# Target sequence in this assay (Q14160 whole entry): as above
row,effect of a mutation on the interaction,Variant
1,disrupting interaction strength,MSSPPPARSGFYRQEVTKTAWEVRAVYRDLQPVGSGAYGAVCSAVDGRTGAKVAIKKLYRPFQSELFAKRAYRELRLLKHMRHENVIGLLDVFTPDETLDDFTDFYLVMPFMGTDLGKLMKHEKLGEDRIQFLVYQMLKGLRYIHAAGIIHRDLKPGNLAVNEDCELKILDFGLARQADSEMTGYVVTRWYRAPEVILNWMRYTQTVDIWSVGCIMAEMITGKTLFKGSDHLDQLKEIMKVTGTPPAEFVQRLQSDEAKNYMKGLPELEKKDFASILTNASPLAVNLLEKMLVLDAEQRVTAGEALAHPYFESLHDTEDEPQVQKYDDSFDDVDRTLDEWKRVTYKEVLSFKPPRQLGARVSKEEPL [T365E]

# Variants of: B4
# Details: with dlg1_human DLG1, Q12959
# Target sequence in this assay (Q12959 whole entry, looked up): as the sequence (Q12959 whole entry, looked up) above
row,effect of a mutation on the interaction,Variant
1,disrupting interaction strength,MSSPPPARSGFYRQEVTKTAWEVRAVYRDLQPVGSGAYGAVCSAVDGRTGAKVAIKKLYRPFQSELFAKRAYRELRLLKHMRHENVIGLLDVFTPDETLDDFTDFYLVMPFMGTDLGKLMKHEKLGEDRIQFLVYQMLKGLRYIHAAGIIHRDLKPGNLAVNEDCELKILDFGLARQADSEMTGYVVTRWYRAPEVILNWMRYTQTVDIWSVGCIMAEMITGKTLFKGSDHLDQLKEIMKVTGTPPAEFVQRLQSDEAKNYMKGLPELEKKDFASILTNASPLAVNLLEKMLVLDAEQRVTAGEALAHPYFESLHDTEDEPQVQKYDDSFDDVDRTLDEWKRVTYKEVLSFKPPRQLGARVSKEEPL [T365E]

# From IntAct's records for PubMed 30126976
